The target in this experiment is RGA5-HMA5 labeled with NT-647 (MST) (rice) (UniProt F7J0N2). The experiment is described as follows: MST.

These results are taken from article doi:10.1101/2022.08.17.504349.

As usually defined, the Kd is the constant that tells how readily two partners part at equilibrium. The low end stands for tighter binding, the high end for weaker binding. Consider “AVR-PikD, recombinant (MST and HDX-MS) (natural protein)”, for which the Kd turned out to be 12 µM.
